Experimental data published in US20150118185, “Heparosan-Polypeptide and Heparosan-Polynucleotide Drug Conjugates and Methods of Making and Using Same” (The Board of Regents of the University of Oklahoma, published 2015).

Target: VEGF (Homo sapiens, UniProt P15692-4 P15692-4:27-191)
Assay: EMSA; 1:1 molar ratio, 3 h, room temperature, 100 mM phosphate neutral pH, 10% TBE gel; high MW complex band; confirmed by HPLC-SEC at 552 nm (FIG. 33)
Settings: chain copies: 2; label: 5' Cy3
Source text: The biological activity and therapeutic action of the anti-VEGF aptamer resides in its binding to its target: human recombinant VEGF. Without access to a growth factor, some cells will not be able to proliferate or survive; thus, these molecules are drug targets. Some drugs or drug candidates operate by binding to a growth factor; these molecules can be in the antibody (naturally produced or synthetically constructed) or the apatamer (nucleic acids) classes (e.g., any binding partner in theory). […] A shift mobility assay, using a 10% TBE gel, was used in order to assess the binding of HEP-aptamer to target (FIG. 32). […] As negative and positive control, VEGF was respectively incubated in the presence of heparosan (HEP) or heparin (i.e., VEGF is known to react with heparin and heparan sulfate).

Chain of VEGF (P15692 other isoform, or with tags, fused parts or gaps): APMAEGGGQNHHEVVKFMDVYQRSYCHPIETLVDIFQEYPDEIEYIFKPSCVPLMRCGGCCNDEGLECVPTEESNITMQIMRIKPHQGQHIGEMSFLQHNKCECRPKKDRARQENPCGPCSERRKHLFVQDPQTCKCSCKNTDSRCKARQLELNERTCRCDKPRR

ACCCGTCTTCCAGACAAGAGTGCAGGGTT (ssDNA, 3' C6 thiol coupled to heparosan (38.8- or 60-kDa chain)) [HEP-anti-VEGF DNA aptamer]: binds.
